This note sets out measurements from the DeepSol protein solubility set.

This series in a line: soluble on expression in E. coli; label from the status in PepcDB or PDB records.
As to “MSLSIKNIKRIITAWKPSTFETYKKTFEKYGGSVNMHPDVVSYFMIHHDWKFDFFHYEKDGDIKGSYFLCNGKQIGIMARRSYPLSSDEVLIPFSPHARCFFPDKTNKLSIINKQNIINATWKIARKKQNCIIKESFSPKFEKTRRNEIQRFIRNGGEIKCISQLSDKEISSSYISLFHSRFGGTLPCYEYDNLLMFISHLRELMFGHVLFWDNKPCAIDIVLKSESSCNVYYDVPNGAVLNDENCMKLSPGSVLMWLNIDKARRYCQDNNKKMIYSIGAFRPEWKYKLLWSVPCKVGKCLCEGHHHHHH”, the “soluble on expression in E. coli” value is listed as “soluble”.
“MGSDKIHHHHHHMEISFTRVALLAAALFFVGCDQKPQPAKTHATEVTVLEGKTMGTFWRASIPGIDAKRSAELKEKIQTQLDADDQLLSTYKKDSALMRFNDSQSLSPWPVSEAMADIVTTSLRIGAKTDGAMDITVGPLVNLWGFGPEQQPVQIPSQEQIDAMKAKTGLQHLTVINQSHQQYLQKDLPDLYVDLSTVGEGYAADHLARLMEQEGISRYLVSVGGALNSRGMNGEGLPWRVAIQKPTDKENAVQAVVDINGHGISTSGSYRNYYELDGKRLSHVIDPQTGRPIEHNLVSVTVIAPTALEADAWDTGLMVLGPEKAKEVVRREGLAVYMITKEGDSFKTWMSPQFKSFLVSEKN”: the “soluble on expression in E. coli” value is on record as “not soluble”.
As to “MSLLEKINSSTCTLRFKNDWLKIFTCPVPSSDFLSFVGVATIDAPQHAVLSLLYDIESATEWVWKTREMRVLQELADDNEGRVVYQVVSAPWPVSDREIISRSTAYKDPETGEVFIKIESLPDFIPETSNCVRVRKLEGAWNILPLSENSCRVVFRLHIEPAGEIPSWLANIAVIDTPYHTLNNMRDMVKREKYKNPVGAPLKESTEGIIRNYNDFITELEHHHHHH”, the “soluble on expression in E. coli” value is “soluble”.
For the sequence “MSLKISHIDLGEHPILLAPMEDVTDPAFRLMCKKFGADMVYTEFVSSDALIRAVSKTAQKLSISDEERPVAIQIYGKDTETMVEAAKIVEQAQPDILDINFGCPVKRVAGKGAGAGMLQNIPKMLEITRAVVDAVKIPVTVKTRLGWDANNKIIVDLAEQLQDCGIAALTIHGRTRAQMYTGEADWTLIGEVKNNQRMHIPIIGNGDVTTPQRCKECFDRYGVDAVMIGRASFGRPWIFKEVKHYLETGEELPPLSFEWCMEVLRQEVIDSVNLLDERRGILHVRRHLAASPLFKGIPNFKETRIAMLRAETKEELFRIFETIPEKVNSLLDEGHHHHHH”, the “soluble on expression in E. coli” value was “soluble”.
Regarding “MSSGNRQAPMPPPKPRNLGRGQFYQQGGYLTPQDSDTDSGISADCDQGSPRAAAGFGGTGFNGTVNGQQVNSQRRIPDLPPGAYQNYRSHSSADYLTPNSARKIASYSTTPRRLPLQPQQQAPATATKAKYRVRFADEVDSGASTSSGTSSTHISPRNDPQEMLMNSAVGAPQITSTFQQPASYMQNSSDAQYKMNKIEYPPVSRTPPVACSSRTGTLQRTPNRRLPISSTPQPQPTYADQMQSLPEPPPYTIAMQRLRSVEQQPQESFRDAFIRKSVNDTLQRRYRQRSSSLPRGNKSYYEGIDIYDAQPPIRPLPQQQTSLMTVANQLPGSLDNLHINNLNMRRRKLPTAPLMGSSCQLHLDNSDELTAYRALQFQMMQDELQRQQPPPQSFERPTLLRRTNMPQQQSFNIPHITTTGPPPPAMGLSVPVQYDQGEYGTQSVRAQLVALDQRGFRRVLVEKMMPGPFGFYIATGVVAGQRAGIFISRVSLPSLSPMLTVGDEIIYVDEEYVKGRSLEYVQSLRIFEFQTELITEEPPHKQVIFM”, the “soluble on expression in E. coli” value is “not soluble”.
For “DDGSNEDTKQALSALSEQGLIKLISLSENQGKGGAVMAGLHQAHQLGFTHTIQIDADGQHDLEALPKLLSASETKPDNLISGQPIYDESVPKARLYGRYATHIWVWIETLSLSIKDSMCGFRAYPVAKTVAVLNKYNIGKRMDFDIEILVRMYWEGVDIDFVPTRVIYPEGGISHFDALWDNVKISWMHTRLFFGMLPRIPSLLARKRRHTDDSNAHWSKRKEQGTILGIKTLLAVYRLFGRKAFDLILKLVMRYYHFTGKSAREASEIYLQNLQRYAAQQNIALPKQLDSYHHLLSFGRTMLDKLAAWQGDFNVDNLTIHGQHHFEEMAQKKQGVLILGSHLGNIELCRALGRRHSHVKINALVFTQHAEQFNAVMKAVNPNSELNLIQVSSMGPDTAILLQQKIEQGEWVVIVGDRTSTSKENRVVWADFLGKPAPFPQGP” the value was “not soluble”; for “MQYFSPEQQYNAWIVSDLVKQIFHKRAGCSPGIHELAVFAEEHFHIDIDFVFSIIMNIGDIEFALTDEIEKKLSGYLSTLLPYVTADMFETSKANAHAFLSRRHGNAAYHLFVSDDAFMRKQLEHHHHHH”, “soluble”.
For the sequence “SDTNSNQGIAFVHGTRDHREDAYGGYWKIDFIQSISQTLAKPENHYVVHCDFSQYMWHEDAANCVANQLLEFINDKNVSSLTVYTHSDGANIMRWILSNPTYDGRYMTLKRKISQVIAIAPSSGGTPLADEVLNGGIFETSLAWLLGYLSDAVKQQRVGDMLIYNEELLLGSKGRPSLSIPFKVIVGTDVYASPFSTSSYCNGYMLNSGLKIAKLYLNQCADGFLDCESQAQAGEVWFYDIDKTDYNLPLSHNQSRHSCFGLDQI”, the “soluble on expression in E. coli” value is recorded as “not soluble”.
In the case of “MMAESTGVDRGIQSLIAARKSLKLSLEKSKAIGLALGKTGPRFDEIEQRLPLLEAAVRPIRADGEALKDVGGNINRAVGPAAAVLKVFDAVHGLEKSLLSDPKNDLSSYLSVLKRLEEALKFLGENCGLAIQWLEDIVEYLDDHHVADEKYLSNLKKSLRGLSEFHNDRGGGEEKERSQLRLDGGLRNAALDKLENEFRRLLKDNSVPLPMASPSSLGDQACIAPSQLPVTVIHKLQAILGRLRANNRLDKCISIYVEVRSLNVRASLQALDLDYLDISVSEFNDVQSIEGYIAQWGNHLEFAVKHLFEAEFKLCNDVFERLGLNVWMDCFSKIAAQAGMLAFLQFGKTVTDSKKDPIKLLKLLDIFTSLNKLRADFNRLFGGAACIEIQNFTRDLIKRIIDGAAEIFWELLVQVEIQKQTPPPSDGGVPRLVSFVTDYCNKLIGDKYKSTLTQVLLIHKSWRSERFQDNQLMVEVLRIIKAIEQNLDVWMKAYPDQTLAHFFGMNNHWHLYKNLKGTNIGDHLGDSWLKEHDQYKEYYATVFLRDSWGKLPSHLSREGLILFSGGHATARDLVKKRLKAFNDAFDEMYKKQASWVLPEKDLRDRVCQQIVQAIVPVYRSYMQNYGPLVEKDASSSKYVRYTVVALEKILSSLYMPKPMRYGSFKGTPPSEKFKNDVDLRRTTSAVV”, the “soluble on expression in E. coli” value was “soluble”.
For “MARKRIITPEKKELIRNLISEYNITSAKDLQEALKDLLGDTIQNMLEAELDEHLGYEKYESTEEAKSNYRNGYTSKTLKSSVGQVEIDIPRDRNAEFEPKIVPRYKRDISEIENKIIAMYARGMSTREINEQIQEIYGFEVSAEMVSKITDKILPEIEEWQKRPLGEVIR”, the “soluble on expression in E. coli” value was “soluble”.
“MYDAALGRWHAVDPMSEKYYSWSPYTYCKNNPVLRIDLDGKDDYVISRSGRLFNETPIDKRGKGSTDNLYLSSDRSISVTVNQGLLGEMHSMQAKEQKENRVKKSYGSTQDLETAATVFKFAADHTTVEWKLDVYDDNGTRTAVVATDRDPYGVDNGVYAQNKLSVKGEKVIDIHSHLPGGTKGGAGNDFNLAKPQRKNAVYMKDNRVSTDKKDMIYEYTKNASRVNSIRVYDATDLLQYIKRK”: the “soluble on expression in E. coli” value is reported as “not soluble”.
For “NNEIMPGKMKVKATKGEGDGGITSEGNALYNNEGGRAFMYAYVTTKPGMKYVKWEHDSGVVTVELEPPCRFVIDTPTGPQIKYLYFVKNLNNLRRGAVLGYIGATVRLQ” the value was “soluble”; for “MGSDKIHHHHHHMSLTPVLDKIDSDVSAATDRLLELLRIPSISTDPAYKADCDAAADWLVKDLNSIGIKAEKRETPGHPMVVGHVGEENTKGPHLLFYGHYDVQPVDPLNLWNTPPFEPQLEETPNGTVIRGRGASDDKGQLMTFVEACRAWQAVHGTLPCRITFFFEGEEESGSPSLIPFLEAAKEELSADIALICDTSMVARGVPLVASQLRGMMKDEFTLIGPKIDLHSGHYGGPGLNPLREISHIIASFHDPDTGAVAVEGFYEGVPEVPADILRQWEGCGFDEKDYLSNAGYTEAHGEKKYSTLEQQWARPTLEINGLWGGYQGAGTKTVIPSEAHCKITCRLVGDMDPADLRQKIRKHVEDRLPTDCTVKWDLDLDGAPAYVIDTTRPEFEAARGALTEEWNREAVFSGMGGSIPVAGYFKSILGMDAMLIGFANEDDAIHSPNEKYDLESFHKGIRSWARVLDALSKA”, “not soluble”.
Take “MSLAKQPIDLLIQPKWRIIDQSSLGPYFDAKQSFAIDDTLCASVGKGLSPATARSWVHHDTIVLGIQDTRLPYLQEGISLLEEAGYQAIVRNSGGLAVVLDSGVLNVSLIFQDKKNGIDIDRGYEAMFELVKRMLSSYDAAIEAYEIKGSYCPGSFDLSIGGRKFAGISQRRLRGGVAVQIYLCADQSGSGRAELIKRFYDTALKDMRGKTKAVYPDIRPETMASLSELLNEDISVQDLMLLLLTQLKELGGEIYQGPLTPAEEEVYEKNLVRMIERNEKVFGEGHHHHHH”: the “soluble on expression in E. coli” value is listed as “soluble”.
On to “SQFKWSDFRILDRVSIGHGGRADELVFEAIVQVPDSPLFNQGVVLRKLNTTRAQRRGRRAIEVFKKLVRRRLLYHSYSMQVHGYITNNLSDDQYSFTLVHGCHGSFSIRHWLQQSDWIPTLEATLALDEESFRRVGDDTTGGPAVSRQLRLIRTLMRDILIGVNYLHSHGLAHTELRLENVHISPVDRHIKVGILGNAADFNGDVPSTSNAYSTMDRRQMMIAFDMRCVGFMMAKMVLQELMDPLIFAKLKSFLAKGNDPSSLREFFVTTLNTNSESGNTGVQILDRNWGAGWHLLSLLIATRPSERISCLDALKHPFLCGPRWRVAPSMDIIRWGLGSTAVKISEEYIYRMPQRQRLAHFIGLMEMLNPYPKPNCWLELLPGRWRLLYSTGKHIGLTLRQPSTRALIGNVHLTITRASESINNTSLSFTSDIRFTAITSKDWPHNKIGAAGKLQTLSQFRLIAGKRLYLKEEKKNIGKFSMGEPDAEEGLAEKLETEKWKKVVPFKEFPSSLPVAKLVSGEIEVTMNMNDHIDSPGSVIGEVRKQIPPEMFDLSKLVCGTYIDSRLLVLRCVNGSALLFTRSSLDHKSM”, for which the “soluble on expression in E. coli” value was “soluble”.
For “MAHHHHHHMMRQNLTSDSLITDTLRKAGVPCDVVGIVETVAGACRAIAAGLRNDGVTAAKSKNNFGDDVLSVDVMADKIISEALNSCQHVASYVSEESPSLASTAHSGKATYSVSYDPLDGSSIITSNFTVGSIFAVWPGNTPIGLTVRDMAASVVAVYGPRVVLFVGQEELGVAEFFCGADGEWKLAKRVWAGVCTPRTATVTAAGRGVKLKATVFSPGNLRAVRHLPWYKQLITMYMQEGATLRYTGGMVPDVCQIIVKGDGIYMTPASPQHKMKLRLLFEAAPMAFLIHCAGGRSTTGLTNMMNVRVVSMEQTTPIALGCARDVERYERMCRGCSKL”, the “soluble on expression in E. coli” value is listed as “soluble”.
“MIDPREIAISSRLEKVRNVIPVVSGKGGVGKSLISTTLALLLREKGYKVGLLDLDFHGASDHVILGFEPKEFPEEDKGVVPPEVNGVKFMTIVYYTENKPTPLRGKEVSDALIELLTITRWDELDYLVIDMPPGLGDPFLDVLRFLKRGKFIVVATPSKLALNVVEKLIQLLKEENREILGIIENMKLDEEEDVKNLAKRHGINYLLGVPFYRDLEEKIGKVEELLKTPFADKLREVIKVLV”: the “soluble on expression in E. coli” value is on record as “soluble”.
As for “NKNAFLIVRGNLTYAHSEYLKYEDNTYDKEWWKYKIGYSPNQKWGYIAEGLFIDDAEVANSPVQFGDYKAGDIKYRDMNGDGVINSLDQVPIGHPTSPEINYGFGSTFSYKGFDINFQFHGSAQSSFWIDYDKMSPFFKDSKMSQKTNNQLVKFIANSYWSESNRNRYATWPRLSTTSVANNKELSTWFMRDGSFLRLKLVELGYTVPQKIVSKWGMSNLRLYMSSTNLFVLSKFKDWDVELAGNGLNYPLQRVFNIGVNVSF”, the “soluble on expression in E. coli” value is listed as “not soluble”.
